From article PMC10370305, “Functional Degeneracy in Paracoccus denitrificans Pd1222 Is Coordinated via RamB, Which Links Expression of the Glyoxylate Cycle to Activity of the Ethylmalonyl-CoA Pathway” (Applied and Environmental Microbiology, 2023)

Assays:
RamBPd (Pden_1365) [1] = target: T1, RamBPd (Pden_1365) (Paracoccus denitrificans, UniProt A1B1S2); experiment: mass photometry titration (tetramer to dimer shift; saturation at […], […] dimer to tetramer); type: binding
T1 construct: purified RamBPd, His-SUMO tag cleaved off
T1 sequence (A1B1S2 1-477): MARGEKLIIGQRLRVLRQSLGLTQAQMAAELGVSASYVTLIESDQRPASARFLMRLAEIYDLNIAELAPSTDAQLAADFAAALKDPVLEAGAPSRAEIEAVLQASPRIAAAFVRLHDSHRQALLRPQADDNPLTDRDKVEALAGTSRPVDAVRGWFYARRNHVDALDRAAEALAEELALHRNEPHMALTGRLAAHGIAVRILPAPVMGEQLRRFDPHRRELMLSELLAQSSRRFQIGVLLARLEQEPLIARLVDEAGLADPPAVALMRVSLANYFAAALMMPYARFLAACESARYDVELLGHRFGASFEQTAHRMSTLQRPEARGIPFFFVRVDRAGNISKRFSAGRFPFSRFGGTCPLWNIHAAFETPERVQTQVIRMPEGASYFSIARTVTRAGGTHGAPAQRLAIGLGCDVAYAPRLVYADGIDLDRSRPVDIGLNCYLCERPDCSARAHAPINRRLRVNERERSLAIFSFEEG

RamBPd (Pden_1365) [2] = target: T1, RamBPd (Pden_1365); experiment: mass photometry titration (tetramer to dimer shift); type: binding
[3] = target: RamBPd (Pden_1365), regulator of acetate metabolism of Paracoccus denitrificans Pd1222 (Paracoccus denitrificans Pd1222); experiment: mass photometry; 250 nM RamBPd in PBS (pH 7.4), no supplement; Refeyn One mass photometer
[4] = target: RamBPd (Pden_1365), regulator of acetate metabolism of Paracoccus denitrificans Pd1222 (Paracoccus denitrificans Pd1222); experiment: mass photometry; 250 nM RamBPd in PBS (pH 7.4), pre-incubated for 35 min with rising concentrations of free CoA or of a CoA ester (ethylmalonyl-, methylsuccinyl-, mesaconyl-, crotonyl-, beta-methylmalyl-CoA); tetramer to dimers

## CC(C)(COP(=O)(O)OP(=O)(O)OC[C@H]1O[C@@H](n2cnc3c(N)ncnc32)[C@H](O)[C@@H]1OP(=O)(O)O)[C@@H](O)C(=O)NCCC(=O)NCCS [CoA]
RamBPd (Pden_1365) [1]
  mass photometry titration (tetramer to dimer shift); saturation at 62.5 μM, 1:1 d: tetrameric RamBPd complex dissociates into a dimer upon the addition of CoA

## C[C@@H](C(=O)SCCNC(=O)CCNC(=O)[C@H](O)C(C)(C)COP(=O)(O)OP(=O)(O)OC[C@H]1O[C@@H](n2cnc3c(N)ncnc32)[C@H](O)[C@@H]1OP(=O)(O)O)[C@H](O)C(=O)O [β-methylmalyl-CoA]
RamBPd (Pden_1365) [2]
  Kd: ~700 µM

## RamBPd (Pden_1365), regulator of acetate metabolism of Paracoccus denitrificans Pd1222 (natural protein)
[3]
  stoichiometry N: 4
[4]
  ratio of dimer to tetramer at saturation with 62.5 uM free CoA (dimer:tetramer): 1
  ratio of dimers to tetramers with beta-methylmalyl-CoA (dimer:tetramer): 9
  ratio of dimers to tetramers with crotonyl-CoA (dimer:tetramer): 3
  ratio of dimers to tetramers with mesaconyl-CoA (dimer:tetramer): 3
  stoichiometry N: 2
